Measured values reported in US20240034779A1 (Takeda / Millennium, published 2024).

Legend:
[1] = target: T1, cynomolgus complement factor D (CFD) (cynomolgus monkey); assay: SPR (Biacore), pH 7.4
T1 construct: also called cyno CFD; cynomolgus CFD

[2] = target: T2, human complement factor D (CFD) (human, UniProt P00746 26-253, limits assumed); assay: SPR (Biacore), pH 5.5
T2 construct: also called human CFD; adipsin

[3] = target: T1, cynomolgus complement factor D (CFD); assay: SPR (Biacore), pH 5.5
[4] = target: T2, human complement factor D (CFD); assay: SPR (Biacore), pH 7.4; pH 7.4

T2 sequence (P00746 26-253 limits assumed): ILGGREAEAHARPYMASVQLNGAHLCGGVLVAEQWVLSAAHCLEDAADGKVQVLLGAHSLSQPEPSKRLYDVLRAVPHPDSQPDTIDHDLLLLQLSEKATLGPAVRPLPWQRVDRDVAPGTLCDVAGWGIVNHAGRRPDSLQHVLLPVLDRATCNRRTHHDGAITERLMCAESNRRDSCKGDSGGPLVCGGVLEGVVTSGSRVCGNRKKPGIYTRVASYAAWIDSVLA

B1: anti-CFD antibody 2 (clone 169C8) (antibody, human IgG1, lambda, L234A L235A, V domains shown)
VH: EVQVQESGPGLVKPSQTLSLTCTVSGGSITTSYYAWSWIRQPPGKGLEWMGDIANDGSTYYSPSLESRTSISRDTSKNQFSLQLSSVTPEDTAVYYCARLRSLYTDYDPHYYDYWGQGTQVTVSS
VL: SSALTQPSALSVTKGQTAKITCQGDLLPRHYAHWYQQKTGQAPKLIVYDDDIRPSGIPERFSGSNSGGVATLTIAGAQAEDEADYHCQSADSNDDAVFGGGTHLTVLS
notes: also called anti-CFD mAb 2; ASHE mAb
Kd [1]: 0.037 nM
Kd [2]: 805 nM
Kd [3]: 4.59 nM
Kd [4]: 0.002 nM
